This note sets out measurements from patent US20160280796A1 (Memorial Sloan Kettering, published 2016).

Usually Kd stands for the constant that tells how readily two partners part at equilibrium. Low values mean tighter binding, high ones weaker binding. One may read the koff as the first-order rate constant of dissociation. A higher koff goes with a short-lived complex. As usually defined, the kon is the rate constant with which the complex forms. Low readings indicate slower complex formation, high ones faster complex formation.

Assay [1] addresses T1, MHC1/WT1 peptide complex (soluble, biotinylated MHC-WT1 loaded on streptavidin biosensor) (human).
T1 construct: also called WT1/HLA-A2 complex
Put plainly: ForteBio Octet QK, biotinylated MHC-WT1 on streptavidin biosensor, antibody at 10 µg/ml, 1:1 model. (In BLI a coated tip is dipped into the sample, and binding shifts an interference pattern.)

Assay [2] concerns the target T1, MHC1/WT1 peptide complex (soluble, …). Put plainly: ForteBio Octet QK, biotinylated MHC-WT1 on streptavidin biosensor, antibody at 20 µg/ml, 1:1 model.

B1: ESK1 (full-length antibody, parent of the ESK1-OKT3 bi-specific) (antibody, V domains shown)
VH: QMQLVQSGAEVKEPGESLRISCKGSGYSFTNFWISWVRQMPGKGLEWMGRVDPGYSYSTYSPSFQGHVTISADKSTSTAYLQWNSLKASDTAMYYCARVQYSGYYDWFDPWGQGTLVTVSS
VL: not shown
notes: also called ESK1 mAb
In the case of B1, in assay [1], the Kd is 9.12 nM, the koff was 0.00499 s⁻¹ and the kon is 547000 M⁻¹ s⁻¹.

B2: ESK1-OKT3 (bi-specific), full length bi-specific antibody made from ESK1 and anti-CD3 OKT3 by 2-MEA reduction and re-oxidation (bispecific antibody)
heavy 1: not shown
light 1: not shown
heavy 2: not shown
light 2: DIQMTQSPSSLSASVGDRVTITCSASSSVSYMNWYQQTPGKAPKRWIYDTSKLASGVPSRFSGSGSGTDYTFTISSLQPEDIATYYCQQWSSNPFTFGQGTKLQITRTVAAPSVFIFPPSDEQLKSGTASVVCLLNNFYPREAKVQWKVDNALQSGNSQESVTEQDSKDSTYSLSSTLTLSKADYEKHKVYACEVTHQGLSSPVTKSFNRGEC
notes: also called ESK1/OKT3 bi-specific monoclonal antibody
As to B2, in assay [2], the Kd was determined as 92.2 nM, the off-rate (koff) worked out at 0.0033 s⁻¹ and the kon turned out to be 35800 M⁻¹ s⁻¹.
